Experimental data published in patent publication US20250066745A1, “MUTANTS AND USE THEREOF” (BGI SHENZHEN, priority 2021, published 2025).

Assays:
[1] = Luminescence activity assay of purified Gaussia luciferase mutants on coelenterazine; assay type: biochemical; set-up: key to Activity of mutant relative to wild-type Gaussia luciferase without the signal peptide: ratio of mutant luminescence intensity to wild-type Gaussia luciferase; settings: Substrate CTZ (Table 16)
Protocol: (§1) In this Example, the protein concentration was determined with a BCA quantitative kit (Thermo Scientific™ Pierce™ BCA Protein Assay Kit) accurately. The purified luciferase obtained in Example 5 was diluted with diluent (50 mM Tris-HCl, pH 8.0, 100 mM NaCl, 0.1% (v/v) Tween-20) to 1 μg/mL. The diluted luciferase, taken for 10 μL, was moved into a black 96-well plate, then added with 90 μL of the substrates coelenterazine, fluoro-coelenterazine or coelenterazine derivative ZS2 (purchased from Biolab) which was diluted into 100 μM with the same diluent, and the luminescence intensity of the plate was read with a self-luminescence module of a microplate reader. The mutation site of the mutant, the measured luminescence intensity, the ratio of luminescence intensities of the advantageous mutants to the wild-type Gaussia luciferase without the signal peptide having the sequence shown in SEQ ID NO: 3 are shown in Table 15. The results of catalytic activity assay of the advantageous mutants relative to the wild-type Gaussia luciferase without the signal peptide having the sequence shown in SEQ ID NO: 3 on substrate coelenterazine are shown in FIG. 6. […] The results of catalytic activity assay of the advantageous mutants relative to the wild-type Gaussia luciferase without the signal peptide having the sequence shown in SEQ ID NO: 3 on substrate fluoro-coelenterazine are shown in FIG. 7.
(§2) The new mutant library constructed in Example 7 was screened and tested for substrate specificity. Expression and purification schemes were the same as that in Example 5, and the activity assay scheme was the same as that in Example 6. The respective catalytic activities of combinatorial mutants on coelenterazine, fluoro-coelenterazine or coelenterazine derivative ZS2, and coelenterazine derivative ZS26 (purchased from BIOLAB) were assayed, and comparisons among the substrate specificities of the combinatorial mutants were based on the ratios of catalytic activities on two corresponding substrates.

[2] = Luminescence activity assay of purified Gaussia luciferase mutants on coelenterazine derivative ZS2; assay type: biochemical; set-up: key to Activity of mutant relative to wild-type Gaussia luciferase without the signal peptide: ratio of mutant luminescence intensity to wild-type Gaussia luciferase; settings: Substrate ZS2 (Table 16)
Protocol: as §1, §2

Row | Molecule | Activity of mutant relative to wild-type Gaussia luciferase without the signal peptide [1] | Activity of mutant relative to wild-type Gaussia luciferase without the signal peptide [2]
1 | V29A A30D V31I A32V S33N L40A: Gaussia luciferase mutant (protein, SIGNAL (1)..(17), Gaussia luciferase mutant) MGVKVLFALICIAVAEAKPTENNEDFNIADIVNNFATTDADADRGKLPGKKLPLEVLKEMEANARKAGCTRGCLICLSHIKCTPKMKKFIPGRCHTYEGDKESAQGGIGEAIVDIPEIPGFKDLEPMEQFIAQVDLCVDCTTGCLKGLANVQCSDLLKKWLPQRCATFASKIQGQVDKIKGAGGD | 1.046 | 1.164
2 | F26A N27D V29R A30G A32E S33G A36P L40A: Gaussia luciferase mutant (protein, SIGNAL (1)..(17), Gaussia luciferase mutant) MGVKVLFALICIAVAEAKPTENNEDADIRGVEGNFPTTDADADRGKLPGKKLPLEVLKEMEANARKAGCTRGCLICLSHIKCTPKMKKFIPGRCHTYEGDKESAQGGIGEAIVDIPEIPGFKDLEPMEQFIAQVDLCVDCTTGCLKGLANVQCSDLLKKWLPQRCATFASKIQGQVDKIKGAGGD | 0.034 | 0.684
3 | F26C V29L A30D V31L A32V S33G L40I: Gaussia luciferase mutant (protein, SIGNAL (1)..(17), Gaussia luciferase mutant) MGVKVLFALICIAVAEAKPTENNEDCNILDLVGNFATTDIDADRGKLPGKKLPLEVLKEMEANARKAGCTRGCLICLSHIKCTPKMKKFIPGRCHTYEGDKESAQGGIGEAIVDIPEIPGFKDLEPMEQFIAQVDLCVDCTTGCLKGLANVQCSDLLKKWLPQRCATFASKIQGQVDKIKGAGGD | 0.000 | 0.312
4 | F26C V29Y S33G A36I T37E L40T: Gaussia luciferase mutant (protein, SIGNAL (1)..(17), Gaussia luciferase mutant) MGVKVLFALICIAVAEAKPTENNEDCNIYAVAGNFIETDTDADRGKLPGKKLPLEVLKEMEANARKAGCTRGCLICLSHIKCTPKMKKFIPGRCHTYEGDKESAQGGIGEAIVDIPEIPGFKDLEPMEQFIAQVDLCVDCTTGCLKGLANVQCSDLLKKWLPQRCATFASKIQGQVDKIKGAGGD | 0.016 | 1.131
5 | F26D N27D V290 A30D V31I S33R T37L: Gaussia luciferase mutant (protein) MGVKVLFALICIAVAEAKPTENNEDDDIVDIARNFALTDLDADRGKLPGKKLPLEVLKEMEANARKAGCTRGCLICLSHIKCTPKMKKFIPGRCHTYEGDKESAQGGIGEAIVDIPEIPGFKDLEPMEQFIAQVDLCVDCTTGCLKGLANVQCSDLLKKWLPQRCATFASKIQGQVDKIKGAGGD | 1.110 | 0.213
6 | V29L A30G A32V S33G A36N T37A L40S: Gaussia luciferase mutant (protein, SIGNAL (1)..(17), Gaussia luciferase mutant) MGVKVLFALICIAVAEAKPTENNEDFNILGVVGNFNATDSDADRGKLPGKKLPLEVLKEMEANARKAGCTRGCLICLSHIKCTPKMKKFIPGRCHTYEGDKESAQGGIGEAIVDIPEIPGFKDLEPMEQFIAQVDLCVDCTTGCLKGLANVQCSDLLKKWLPQRCATFASKIQGQVDKIKGAGGD | 0.764 | 1.976
7 | V29S A30G V31I A32V S33G A36D T37A: Gaussia luciferase mutant (protein, SIGNAL (1)..(17), Gaussia luciferase mutant) MGVKVLFALICIAVAEAKPTENNEDFNISGIVGNFDATDLDADRGKLPGKKLPLEVLKEMEANARKAGCTRGCLICLSHIKCTPKMKKFIPGRCHTYEGDKESAQGGIGEAIVDIPEIPGFKDLEPMEQFIAQVDLCVDCTTGCLKGLANVQCSDLLKKWLPQRCATFASKIQGQVDKIKGAGGD | 0.000 | 0.142

Now from value to molecule:

Row | Activity of mutant relative to wild-type Gaussia luciferase without the signal peptide [1] | Activity of mutant relative to wild-type Gaussia luciferase without the signal peptide [2] | Molecule
8 | 0.807 | 0.737 | Q152R T167G S170N K178S A182L G183N: Gaussia luciferase mutant (protein, SIGNAL (1)..(17), Gaussia luciferase mutant) MGVKVLFALICIAVAEAKPTENNEDFNIVAVASNFATTDLDADRGKLPGKKLPLEVLKEMEANARKAGCTRGCLICLSHIKCTPKMKKFIPGRCHTYEGDKESAQGGIGEAIVDIPEIPGFKDLEPMEQFIAQVDLCVDCTTGCLKGLANVRCSDLLKKWLPQRCAGFANKIQGQVDSIKGLNGD
9 | 0.706 | 2.603 | Q163S T167S S170T G174N K178T: Gaussia luciferase mutant (protein, SIGNAL (1)..(17), Gaussia luciferase mutant) MGVKVLFALICIAVAEAKPTENNEDFNIVAVASNFATTDLDADRGKLPGKKLPLEVLKEMEANARKAGCTRGCLICLSHIKCTPKMKKFIPGRCHTYEGDKESAQGGIGEAIVDIPEIPGFKDLEPMEQFIAQVDLCVDCTTGCLKGLANVQCSDLLKKWLPSRCASFATKIQNQVDTIKGAGGD
10 | 0.007 | 0.273 | T96P Q163D T167S G174N K178S A182Y G183A: Gaussia luciferase mutant (protein, SIGNAL (1)..(17), Gaussia luciferase mutant) MGVKVLFALICIAVAEAKPTENNEDFNIVAVASNFATTDLDADRGKLPGKKLPLEVLKEMEANARKAGCTRGCLICLSHIKCTPKMKKFIPGRCHPYEGDKESAQGGIGEAIVDIPEIPGFKDLEPMEQFIAQVDLCVDCTTGCLKGLANVQCSDLLKKWLPDRCASFASKIQNQVDSIKGYAGD
11 | 0.850 | 0.890 | T167S S170D G174N Q175E K178N A182L: Gaussia luciferase mutant (protein, SIGNAL (1)..(17), Gaussia luciferase mutant) MGVKVLFALICIAVAEAKPTENNEDFNIVAVASNFATTDLDADRGKLPGKKLPLEVLKEMEANARKAGCTRGCLICLSHIKCTPKMKKFIPGRCHTYEGDKESAQGGIGEAIVDIPEIPGFKDLEPMEQFIAQVDLCVDCTTGCLKGLANVQCSDLLKKWLPQRCASFADKIQNEVDNIKGLGGD
12 | 0.864 | 1.504 | E102K S103T E110A: Gaussia luciferase mutant (protein, SIGNAL (1)..(17), Gaussia luciferase mutant) MGVKVLFALICIAVAEAKPTENNEDFNIVAVASNFATTDLDADRGKLPGKKLPLEVLKEMEANARKAGCTRGCLICLSHIKCTPKMKKFIPGRCHTYEGDKKTAQGGIGAAIVDIPEIPGFKDLEPMEQFIAQVDLCVDCTTGCLKGLANVQCSDLLKKWLPQRCATFASKIQGQVDKIKGAGGD
